Results published in IntAct's records for PubMed 18354482.

B1: RE1-silencing transcription factor (Homo sapiens), Q13127 (parent)
chain: MATQVMGQSSGGGGLFTSSGNIGMALPNDMYDLHDLSKAELAAPQLIMLANVALTGEVNGSCCDYLVGEERQMAELMPVGDNNFSDSEEGEGLEESADIKGEPHGLENMELRSLELSVVEPQPVFEASGAPDIYSSNKDLPPETPGAEDKGKSSKTKPFRCKPCQYEAESEEQFVHHIRVHSAKKFFVEESAEKQAKARESGSSTAEEGDFSKGPIRCDRCGYNTNRYDHYTAHLKHHTRAGDNERVYKCIICTYTTVSEYHWRKHLRNHFPRKVYTCGKCNYFSDRKNNYVQHVRTHTGERPYKCELCPYSSSQKTHLTRHMRTHSGEKPFKCDQCSYVASNQHEVTRHARQVHNGPKPLNCPHCDYKTADRSNFKKHVELHVNPRQFNCPVCDYAASKKCNLQYHFKSKHPTCPNKTMDVSKVKLKKTKKREADLPDNITNEKTEIEQTKIKGDVAGKKNEKSVKAEKRDVSKEKKPSNNVSVIQVTTRTRKSVTEVKEMDVHTGSNSEKFSKTKKSKRKLEVDSHSLHGPVNDEESSTKKKKKVESKSKNNSQEVPKGDSKVEENKKQNTCMKKSTKKKTLKNKSSKKSSKPPQKEPVEKGSAQMDPPQMGPAPTEAVQKGPVQVEPPPPMEHAQMEGAQIRPAPDEPVQMEVVQEGPAQKELLPPVEPAQMVGAQIVLAHMELPPPMETAQTEVAQMGPAPMEPAQMEVAQVESAPMQVVQKEPVQMELSPPMEVVQKEPVQIELSPPMEVVQKEPVKIELSPPIEVVQKEPVQMELSPPMGVVQKEPAQREPPPPREPPLHMEPISKKPPLRKDKKEKSNMQSERARKEQVLIEVGLVPVKDSWLLKESVSTEDLSPPSPPLPKENLREEASGDQKLLNTGEGNKEAPLQKVGAEEADESLPGLAANINESTHISSSGQNLNTPEGETLNGKHQTDSIVCEMKMDTDQNTRENLTGINSTVEEPVSPMLPPSAVEEREAVSKTALASPPATMAANESQEIDEDEGIHSHEGSDLSDNMSEGSDDSGLHGARPVPQESSRKNAKEALAVKAAKGDFVCIFCDRSFRKGKDYSKHLNRHLVNVYYLEEAAQGQE

Variants of: B1
Details: with fbw1a_human BTRC

Variant | effect of a mutation on the interaction
S1013A | disrupting interaction strength
E1009A;S1013A | disrupting interaction strength
E1009A | disrupting interaction strength
